Values of other authors, collected in article PMC12990809.

Columns and labels:
Experiment in all cases: pulldown
Settings in all cases: 20 nM protein, 1.5 uM RNA pool; 20 mM HEPES pH 7.8, 70 mM KCl, 10 mM NaCl, 10% glycerol, 2 mM DTT, 0.1 ug/uL BSA; 30 min, 4 C (protocol of this paper; not …); cited from earlier work
[1] = molecular target: T1, Syp G309D (Drosophila melanogaster) (UniProt Q7KSA0)
T1 sequence: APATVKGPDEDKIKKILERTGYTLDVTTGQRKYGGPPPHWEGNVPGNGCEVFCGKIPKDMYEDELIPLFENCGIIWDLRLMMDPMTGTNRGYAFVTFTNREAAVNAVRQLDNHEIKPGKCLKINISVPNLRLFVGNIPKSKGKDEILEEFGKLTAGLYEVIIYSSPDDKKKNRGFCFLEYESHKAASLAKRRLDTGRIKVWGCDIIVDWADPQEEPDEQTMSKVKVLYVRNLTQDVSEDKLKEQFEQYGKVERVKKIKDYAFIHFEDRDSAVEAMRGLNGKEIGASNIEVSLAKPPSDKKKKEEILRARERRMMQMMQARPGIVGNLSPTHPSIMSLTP

[2] = molecular target: T2, cpo (Drosophila melanogaster) (UniProt Q01617)
T2 sequence: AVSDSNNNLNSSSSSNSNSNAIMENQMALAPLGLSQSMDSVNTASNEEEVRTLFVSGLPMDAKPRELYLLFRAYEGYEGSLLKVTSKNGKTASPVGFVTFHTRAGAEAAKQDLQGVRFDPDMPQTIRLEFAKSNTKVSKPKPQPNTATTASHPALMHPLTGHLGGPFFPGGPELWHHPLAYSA

[3] = molecular target: T3, Rbp1-like (Drosophila melanogaster) (UniProt M9MS48)
T3 sequence: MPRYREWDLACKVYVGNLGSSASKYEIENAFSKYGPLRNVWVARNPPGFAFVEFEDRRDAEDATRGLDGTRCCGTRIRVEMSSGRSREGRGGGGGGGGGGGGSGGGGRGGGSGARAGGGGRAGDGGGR

[4] = molecular target: Rbp9 (Drosophila melanogaster) (UniProt A2RVE5)
Rbp9 (Drosophila melanogaster), sequence (A2RVE5 entry or part of it): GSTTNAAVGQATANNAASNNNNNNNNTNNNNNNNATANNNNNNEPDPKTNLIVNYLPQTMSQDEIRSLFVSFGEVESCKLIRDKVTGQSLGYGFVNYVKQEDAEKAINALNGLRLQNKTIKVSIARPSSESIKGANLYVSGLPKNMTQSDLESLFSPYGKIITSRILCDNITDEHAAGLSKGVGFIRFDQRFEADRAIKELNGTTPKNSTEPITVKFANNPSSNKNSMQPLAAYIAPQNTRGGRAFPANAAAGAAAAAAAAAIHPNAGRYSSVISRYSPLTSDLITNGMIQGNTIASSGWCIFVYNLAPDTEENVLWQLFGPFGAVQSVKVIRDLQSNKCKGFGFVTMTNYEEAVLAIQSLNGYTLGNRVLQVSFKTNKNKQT

Question: Which binding signal (z-score (mean of top ten 7-mers)) [1] does the source give for AAAUU [RNAcompete motif RNCMPT00131] here?
Answer: Its binding signal (z-score (mean of top ten 7-mers)) is 13.5.

Question: Which binding signal (z-score (mean of top ten 7-mers)) [2] does the source give for AGCAC [RNAcompete motif RNCMPT00133] here?
Answer: Its binding signal (z-score (mean of top ten 7-mers)) is 12.9.

Question: For CAUCAUCG [RNAcompete motif RNCMPT00127], which binding signal (z-score (mean of top ten 7-mers)) [3] is on record?
Answer: Its binding signal (z-score (mean of top ten 7-mers)) is 10.7.

Question: Which binding signal (z-score (mean of top ten 7-mers)) [4] does the source give for UUUNGUU [RNAcompete motif RNCMPT00132] here?
Answer: Its binding signal (z-score (mean of top ten 7-mers)) is 15.5.
